Reference: patent publication US20180037910

Legend:
[1] = tested on: Il2rg ZFN-1 (synthetic construct); experiment: cell_activity; details: ZFN-1+ZFN-2 pair with LTVEC versus LTVEC alone, fold increase in targeting efficiency; 6 bp spacer; mouse F1H4 ES cells
[2] = tested on: Il2rg ZFN-2 (synthetic construct); experiment: cell_activity; details: ZFN-1+ZFN-2 pair with LTVEC versus LTVEC alone, fold increase in targeting efficiency; 6 bp spacer; mouse F1H4 ES cells

Sequence	activity [1] [fold]	activity [2] [fold]
AGCTCCAAGGTCCTC (double strand) [Il2rg exon 1 ZFN-1 half-site (sense strand)]	4	
GTCTTCATTCGCACT (double strand) [Il2rg exon 1 ZFN-2 half-site (anti-sense strand)]		4
